Assay results as given in article PMC9820243, “Structural and Functional Characterization of a New Bacterial Dipeptidyl Peptidase III Involved in Fruiting Body Formation in Myxobacteria” (International Journal of Molecular Sciences, 2022).

How the values were obtained:
[1] = target: the molecule itself; experiment: SEC; HiLoad 16/600 Superdex 200 pg, 20 mM Tris-HCl (pH 7.0) with 0.1 M NaCl, 1 mL/min; mass standards ovalbumin, conalbumin, aldolase, ferritin
[2] = target: the molecule itself; experiment: crystal structure; Se-Met-labelled protein, sitting-drop vapor diffusion at 20 °C, 0.1 M sodium acetate trihydrate pH 4.59, 24% w/v PEG 3350, 0.01 M TCEP; SAD, 1.90 Å; ligand-free, two molecules in the asymmetric unit

Row | Protein | stoichiometry N [1] | binding result [2]
1 | Dipeptidyl peptidase III from Corallococcus sp. EGB (recombinant CoDPP III) (enzyme, UniProt A0A5H1ZR28 1-537, looked up, signal peptide in the construct; dipeptidyl peptidase III (CoDPP III) of Corallococcus sp; EGB, open reading frame of 1719 bp encoding 572 amino acids, predicted signal peptide residues 1 to 22; cloned into Nde I and Xho I sites of pET29a(+); The Xho I site of pET29a probably adds Leu-Glu before the His6 tag (surmised); also called native DPP III; source: E. coli BL21(DE3), purified (CM-Sepharose …)) RLPDAPTLKRMTARFAPVDVKVDVSKLPDAEKRALAKILQAAKIMDPLFLSQAWAGNPTLLLDLVEDTTPLGKERLHAFLLNKGPWSRLDEAKPFIPGVPPKPDEGNFYPAGATKAEVEAWVKSLPEAQQHAATGFFTTVRKGPDGKFLTVPYSVEYQGELGMAAKLLREAAALTQQSTLKRFLETRAEAFLSNDYYASEVAWMELDASVEPTIGPYEVYEDGWFNYKAAFEAFIGVRDEAETQKLAKFSAELQELENNLPIEPALRNPKLGALAPIRVINSLYSSGDGNRGVQTAAYNLPNDERVAAEKGTKRVMLKNIQEAKFQRVLVPIAKVALPAKDRKDVSFDAFFTHILMHELMHGLGPHNVTVAGKQTTVRQALQASSSAIEEAKADISGLWALQRLVDKGTLDKELQRTMYTTFLASAFRSIRFGIDEAHGKGIALQLNHFLDTGAVKVNADGTFEVVPDKMQASVTSLTNQLMSLQAKGDRAAAEELLAKQGVVRPSVQKVLEKLKNVPVDIEPRYVTAESLVKDFGA | 2 | 
2 | Selenomethionine-labelled dipeptidyl peptidase III from Corallococcus sp. EGB (enzyme, UniProt A0A5H1ZR28 1-537, looked up, selenomethionine (Se-Met labelled), signal peptide in the construct; dipeptidyl peptidase III (CoDPP III) of Corallococcus sp; EGB, same pET29a-Codpp III construct as m1 (572 amino acids, predicted signal peptide residues 1 to 22); the final model lacks 27 amino acids at the N-terminus and 8 (chain A) or 12 (chain B) at the C-terminus; Same construct as m1, expressed in a methionine auxotroph with Se-Met; also called Se-CoDPPIII; …) RLPDAPTLKRMTARFAPVDVKVDVSKLPDAEKRALAKILQAAKIMDPLFLSQAWAGNPTLLLDLVEDTTPLGKERLHAFLLNKGPWSRLDEAKPFIPGVPPKPDEGNFYPAGATKAEVEAWVKSLPEAQQHAATGFFTTVRKGPDGKFLTVPYSVEYQGELGMAAKLLREAAALTQQSTLKRFLETRAEAFLSNDYYASEVAWMELDASVEPTIGPYEVYEDGWFNYKAAFEAFIGVRDEAETQKLAKFSAELQELENNLPIEPALRNPKLGALAPIRVINSLYSSGDGNRGVQTAAYNLPNDERVAAEKGTKRVMLKNIQEAKFQRVLVPIAKVALPAKDRKDVSFDAFFTHILMHELMHGLGPHNVTVAGKQTTVRQALQASSSAIEEAKADISGLWALQRLVDKGTLDKELQRTMYTTFLASAFRSIRFGIDEAHGKGIALQLNHFLDTGAVKVNADGTFEVVPDKMQASVTSLTNQLMSLQAKGDRAAAEELLAKQGVVRPSVQKVLEKLKNVPVDIEPRYVTAESLVKDFGA |  | binds
